# In the RNAGym collection of RNA variant scans (doi:10.1073/pnas.2313332121):
# B1: TPR t1 (parent)
# chain: GACCAAUCUGCCCUCAGAGCUCGAGAACAUCUUCGGAUGCAGAGGAGGCAGGCUUCGGUGGCGCGAUAGCGCCAACGUCCUCAACCUCCAAUGCAUCCCACCACAUGAUGAUGCCUGAAGAGCCUUGGUUUUUUG
# Variants of: B1
# Assay: polymerase ribozyme fitness, log enrichment relative to wild type (log ratio); higher = more active; in vitro selection for triplet polymerase activity
# Method in brief: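 Fitness compares each genotype's enrichment to that of the wild type on a logarithmic scale, averaging replicates with inverse-variance weights. The logarithm is base 2. Enrichment came from Illumina sequencing of input and output libraries after one triplicate round of in vitro selection, which included frozen incubation at −7 °C, of PCR-built, transcribed mutant libraries of each subunit of a heterodimeric triplet polymerase ribozyme. Only genotypes with ≥10 input reads and ≥1 read per output were kept.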
row,Variant,polymerase ribozyme fitness (log ratio)
1,GACCAAUCUGCCCUCAGAGCUCGAGUACAUCUUCGGAUGCAGAGGAGGCAGGCUUCGGUGGCGCGAUAGCGCCAACGUCCUCAACCUCCAAUGCAUCCCACCACAUGAUGAUGCCUAAAGAGCCUUGGUUUUUUG,-5.38
2,GACCAAUCUGCCCUCAGAGCUCGAGACCAUCUUCGGAUGCAGAGGAGGCCGGCUUCGGUGGCGCGAUAGCGCCAACGUCCUCACCCUCCAAUGCAUCCCACCACAUGAUGAUGCCUGAAAAGCCUUGGUUUUUUG,-3.23
3,GACCAAUCUGCCCUCAGAGCUCGAGACCAUCUUCGGAUGCAGAGGAGGCAGGCUUCGGUGGCGCGAUAGCGCCAACGUCCUCAACCUCCAAUGCUUCCCACCACAUGAUGAUGUCUGAAGAGCCUUGGUUUUUUG,-4.15
4,GACCAAUCUGCCCUCAGAGCUCGAGUACAUCUUCGGAUGCAGAGGAGGCAGGCUUCGGUGGCGCGAUAGCACCAACGUCCUCAACCUCCAAUGCAUCCCACCACAUGAUGAUGCCUGAAGAGCCUUGGUUUUUUG,-3.13
5,GACCAAUCUGCCCUCAGAGCUCGAGUACAUCUUCGGAUGCAGAGGAGGCAGGCUUCUGUGGCGCGAUAGCGCCAACGUCCUCAACCUCCAAUGCAUCCCACCACAUGAUGAUGCCUGAAGAGCCUUGGUUUUUUG,-4.04
6,GACCAAUCUGCCCUCAGAGCUCGAGACCAUCUUCGGAUGCAGAGGAGGCAGGCUUCGGUGGCGCGAUAGCGCCCACGUCCUCAACCUCCAAUGCAUCCCACCACAUGAUGAUGCCUGAAGAGCCUUGGUUUUUUG,-3.6
7,GACCAAUCUGCCCUCAGAGCUCGAGACAAUCUUCGGAUGCAGAGGAGGCAGGCUUCGGUGGCGCGAUAGCGCCAACGUCCUCAACCUCCAAUGCAUCCCACCUCUGGAUGUUGCCUUAAGAGUCUUGGUUUUUUG,-5.3
8,GACCAAUCUGCCCUCAGAGCUCGAGUACAUCUUCGGAUGCAGAGGAGGCAGGCUUCGGUAGCGCGAUAGCGCCAACGUCCUCAACCUCCAAUGCAUUCCACCACAUGAUUAUGCCUGAAGAGCCUUGGUUUUUUG,-5.7
9,GACCAAUCUGCCCUCAGAGCUCGAGACCAUUUUCGGAUGCAGAGGCGGCAGGCUUCGGUGGCGCGAUAGCGCCAACGUCCUCACCCUCAAAUGCAUCCCACCACAUGAUUAAGCCUGAAGAGUCAUGGUUUUUUG,-6.63
10,GACCAAUCUGCCCUCAGAGCUCGAGACCAUCUUCGGAUGCAGAGGAGGCAGGCUUCGGUGGCGCGAUAGCGCCAACGUCCUCAGCCUCCAAUGCAUCCCACCACAUGAUGAUGCCUGAAGAGCCUUGGUUUUUUG,-5
11,GACCAAUCUGCCCUCAGAGCUCGAGUACAUCUUCGGAUGCAGAGGAGGCAGGCUUCGGUGCCGCGAUAGCGCCAACGUCCUCAACCUCCAAUGCAUCCCACCACAUGAUGAUGCCUGAAGAGCCUUGGUUUUUUG,-3.63
12,GACCAAUCUGCCCUCAGAGCUCGAGUACAUCUUCGGAUGCAGAGGAGGCAGGCCUCGGUGGCGCGAUAGCGCCAACGUCCUCAACCUCCAAUGCAUCCCACCACAUGAUGAUGCCUGAAGAGCCUUGGUUUUUUG,-2.99
13,GACCAAUCUGCCCUCAGAGCUCGAGUACAUCUUCGGAUGCAGAGGAGGCAGACUUCGGUGGCGCGAUAGCGCCAACGUCCUCAACCUCCAAUGCAUCCCACCACAUGAUGAAGCCUGAAGAGCCUUGGUUCUUUG,-2.99
14,GACCAAUCUGCCCUCAGAGCUCGAGUACAUCUUCGGAUGCAGAGGAGGCAGGCUUCGGAGGCACGAUAGCGCCAACGUCCUCAACCUCCAAUGCAUCCCACCACAUGAUGAUGCCUGAAGAGCCUUGGUUUUUUG,-5.57
15,GACCAAUCUGCCCUCAGAGCUCGAGUACAUCUUCGGAUGCAGAGGAGGCAGGCUUCGGUGGCGCGAUAGCGCCAACGUCCUCAACCUCCAAUGCAUCCCACCACAUGAUGAUGCCUGAAUAGCCUUGGUUUUUUG,-3.12
16,GACCAAUCUGCCCUCAGAGCUCGAGUACAUCCUCGGAUGCAGAGGAGGCAGGCUUCGGUGGCGCGAUAGCGCCAACGUCCUCAACCUCCAAUGAAUCCCACCACAUGAUGAUGCCUGAAGAGCCUUGGUUUUUUG,-4.33
17,GACCAAUCUGCCCUCAGAGCUCGAGACCAUCUUCGGAUGCAGAGGAGGUAGGCUUCGGUGGCGCGAUAGCGCCAACGUCCUCAACCUCCAAUGCAUCCCACCACAUGAUGAUGCCUGAAGAGCCUUGGUUUUUUG,-4.08
18,GACCAAUCUGCCCUCAGAGCUCGAGACCAUCUUCGGAUGCAGAGGAGGCAGGCUUAGGUGGCGCGAUAGCGCCAACGUCCUCAACCUCCAAUGCAUCCCACCACAUGAUGAUGCCUGAAGAGCCUUGGUUUUUUG,-3.22
19,GACCAAUCUGCCCUCAGAGCUCGAGUACAUCUUCGGAUGCAGAGGAGGCAGGCUUCGGUGGCGCGAUACCGCCAACGUCCUCAACCUCCAAUGCAUCCCACCACAUGAUGAUGCCUGAAGAGCCUUGGUUUUUUG,-4.28
20,GACCAAUCUGCCCUCAGAGCUCGAGACCAUCUUCGGAUGCCGAGGAGGCAGGCUUCGGUGGCGCGAUAGCGCCAACGUCCUCAACCUCCAAUGCAUCCCACCACACGAUGAUGCCUGAAGAGCCUUGGUUUUUUG,-5.25
21,GACCAAUCUGCCCUCAGAGCUCGAGUACAUCUUCGGAUGCAGAGGAGGCAGGCUUCGGUGGCGCGAUAGCGCCAACGCCCUCAACCUCCAAUGCAUCCCACCACAUGAUGAUGCCUGAAGAGCCUUGGUUUUUUG,-2.92
